B1: F-box/WD repeat-containing protein 11 (Homo sapiens), Q9UKB1 (parent)
chain: MEPDSVIEDKTIELMCSVPRSLWLGCANLVESMCALSCLQSMPSVRCLQISNGTSSVIVSRKRPSEGNYQKEKDLCIKYFDQWSESDQVEFVEHLISRMCHYQHGHINSYLKPMLQRDFITALPEQGLDHIAENILSYLDARSLCAAELVCKEWQRVISEGMLWKKLIERMVRTDPLWKGLSERRGWDQYLFKNRPTDGPPNSFYRSLYPKIIQDIETIESNWRCGRHNLQRIQCRSENSKGVYCLQYDDEKIISGLRDNSIKIWDKTSLECLKVLTGHTGSVLCLQYDERVIVTGSSDSTVRVWDVNTGEVLNTLIHHNEAVLHLRFSNGLMVTCSKDRSIAVWDMASATDITLRRVLVGHRAAVNVVDFDDKYIVSASGDRTIKVWSTSTCEFVRTLNGHKRGIACLQYRDRLVVSGSSDNTIRLWDIECGACLRVLEGHEELVRCIRFDNKRIVSGAYDGKIKVWDLQAALDPRAPASTLCLRTLVEHSGRVFRLQFDEFQIISSSHDDTILIWDFLNVPPSAQNETRSPSRTYTYISR
partner: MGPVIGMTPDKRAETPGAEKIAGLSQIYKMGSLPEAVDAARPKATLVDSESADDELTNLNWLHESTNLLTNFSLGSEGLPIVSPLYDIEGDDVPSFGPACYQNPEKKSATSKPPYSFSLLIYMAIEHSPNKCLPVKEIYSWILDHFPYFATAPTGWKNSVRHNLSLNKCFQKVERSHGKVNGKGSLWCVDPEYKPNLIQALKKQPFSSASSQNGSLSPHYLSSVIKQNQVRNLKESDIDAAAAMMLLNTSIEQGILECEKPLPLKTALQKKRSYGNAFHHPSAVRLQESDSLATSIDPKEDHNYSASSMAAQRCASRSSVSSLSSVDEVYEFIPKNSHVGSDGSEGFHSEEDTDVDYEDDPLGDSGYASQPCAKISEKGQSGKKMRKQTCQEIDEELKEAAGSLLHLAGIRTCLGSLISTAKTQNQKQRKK

Variants of: B1
Settings: with foxn2_human FOXN2, P32314

| Variant | effect of a mutation on the interaction |
| --- | --- |
| MEPDSVIEDKTIELMCSVPRSLWLGCANLVESMCALSCLQSMPSVRCLQISNGTSSVIVSRKRPSEGNYQKEKDLCIKYFDQWSESDQVEFVEHLISRMCHYQHGHINSYLKPMLQRDFITALPEQGLDHIAENILSYLDARSLCAAELVCKEWQRVISEGMLWKKLIERMVRTDPLWKGLSERRGWDQYLFKNRPTDGPPNSFYRSLYPKIIQDIETIESNWRCGRHNLQRIQCRSENSKGVYCLQYDDEKIISGLRDNSIKIWDKTSLECLKVLTGHTGSVLCLQYDERVIVTGSSDSTVRVWDVNTGEVLNTLIHHNEAVLHLRFSNGLMVTCSKDRSIAVWDMASATDITLRRVLVGHRAAVNVVDFDDKYIVSASGDRTIKVWSTSTCEFVRTLNGHKRGIACLQYRDRLVVSGSSDNTIRLWDIECGACLRVLEGHEELVRCIRFDNKRIVSGAYDGKIKVWDLQAAADPRAPASTLCLRTLVEHSGRVFRLQFDEFQIISSSHDDTILIWDFLNVPPSAQNETRSPSRTYTYISR [L474A] | disrupting interaction |
